This data set concerns K562 CRISPRi cells. In words: Constant region variant library pooled growth screen, K562. The class given is cell-based, human. The following applies: sgRNA constant region variants; activity relative to the original, un-modified constant region cr995. The method, boiled down:
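Library of sgRNA constant-region variants, each paired with 36 targeting sequences (essential-gene and non-targeting), transduced in duplicate into K562 CRISPRi cells, puromycin-selected and grown 4–8 days at >2000× coverage. Activity per variant is its growth phenotype normalised to the same targeting sequence with unmodified constant region.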

B1: cr844 (nucleic acid)
guide: GTTTAAGAGCTAAGCTGGAAACAGCATAGCAAGTTTAAATAAGGCTAGTCCGTTATCAGCTTGAAAAAGCGGCATTGAGTCAATGCT
modifications: listed as DNA, chemistry not fully specified
B1: the Mean relative activity amounted to 0.6346.

B2: cr793 (nucleic acid)
guide: GTTTAAGAGCTAAGCTGGAAACAGCATAGCAAGTTTAAATAAGGCTAGTCCGTTATCAACTTGAAAAAGTGGCACCGAGTCGTTGCT
modifications: listed as DNA, chemistry not fully specified
Regarding B2, the Mean relative activity was 0.6343.

B3: cr442 (nucleic acid)
guide: GTTTAAGAGCTAAGCTGGAAACAGCATAGCAAGCTTAAATAAGGCTAGTCCGTTATCAACCTGAAAAGGTGGCACCGAGTCGGTGCT
modifications: listed as DNA, chemistry not fully specified
Turning to B3, the Mean relative activity stood at 0.6169.

B4: cr631 (nucleic acid)
guide: GTTTAAGAGCTAAGCTGGAAACAGCATAGCAAGTTTAAATAAGGATATTCCGTTATCAACATGAAAATGTGGCAACGAGTCGTTGCT
modifications: listed as DNA, chemistry not fully specified
As for B4, the Mean relative activity turned out to be 0.6014.

B5: cr441 (nucleic acid)
guide: GTTTAAGAGCTAAGCTGGAAACAGCATAGCAAGTTTAAATAAGGCTAGTCCGTTATAAACTTGAAAAAGTGGCACCGAGTCGGTGCT
modifications: listed as DNA, chemistry not fully specified
B5 came in with a Mean relative activity of 0.622.

B6: cr913 (nucleic acid)
guide: GTTTAAGAGCTAAGCTGGAAACAGCATAGCAAGTTTAAACAAGGCTAGTCCGTTATCAACTTGAAAAAGTGGCACCGAGTCGGTGCT
modifications: listed as DNA, chemistry not fully specified
Regarding B6, the Mean relative activity was 0.633.

B7: cr086 (nucleic acid)
guide: GTTTACTAGCTAAGCTGGAAACAGCATAGCAAGTTTAAATAAGGCTAGTCCGTTATCAACTTGAAAAAGTGGCACCGAGTCGGTGCT
modifications: listed as DNA, chemistry not fully specified
As for B7, the Mean relative activity was determined as 0.614.

B8: cr481 (nucleic acid)
guide: GTTTAAGAGCTAAGCTGGAAACAGCATAGCAAGTTTAAATAAGGGTACTCCGTTATCAACTTGAAAAAGTGACACCGAGTCGGTGTT
modifications: listed as DNA, chemistry not fully specified
With B8, the Mean relative activity is 0.5936.

B9: cr189 (nucleic acid)
guide: GTTTAAGAGCTAAGCTGGAAACAGCATAGCAAGTTTAAATAAGGCTAGTCCGTTATCAACTTGAAAAAGTGGCACCAAGTCGGTGCT
modifications: listed as DNA, chemistry not fully specified
With B9, the Mean relative activity worked out at 0.627.

B10: cr213 (nucleic acid)
guide: GTTTAAGAGCTAAGCTGGAAACAGCATAACAAGTTTAAATAGGGCTAGTCCGTTATCAACTTGAGAAAGTGGCACCGAGTCGGTGCT
modifications: listed as DNA, chemistry not fully specified
Regarding B10, the Mean relative activity is reported as 0.6325.

B11: cr679 (nucleic acid)
guide: GTTTAAGAGCTAAGCTGGAAACAGCATATCAAGTTTAAATAAGGCTAGTCCGGTATCAACTTGAAAAAGTGGCACCGAGTCGGTGCT
modifications: listed as DNA, chemistry not fully specified
In turn, B11 gave a Mean relative activity of 0.6292.

B12: cr026 (nucleic acid)
guide: GTTTGATAGCTAAGCTGGAAACAGCATAGCAAGTTTAAATAAGGCTAGTCCGTTATCAACTTGAAAAAGTGGCACCGAGTCGGTGCT
modifications: listed as DNA, chemistry not fully specified
In turn, B12 had a Mean relative activity of 0.6314.

B13: cr602 (nucleic acid)
guide: GTTTAAGAGCTAAGCTGGAAACAGCATAGCAAGTTTAAATAAGGCTAGTCCGTTATCAACTTGAAAAAGTGGCGCCGAGTCGGCGCT
modifications: listed as DNA, chemistry not fully specified
B13 had a Mean relative activity of 1.049.

B14: cr861 (nucleic acid)
guide: GTTTAAGAGCTAAGCTGGAAACAGCATAGCAAGTTTAAATAAGGCTAGTCCGTTAGCAACTTGAAAAAGTAGCACCGAGTCGGTGCT
modifications: listed as DNA, chemistry not fully specified
In turn, B14 registered a Mean relative activity of 0.6319.

B15: cr746 (nucleic acid)
guide: GTTTAAGAGCTAAGCTGGAAACAGCATAGCAAATTTAAATAAGGCTAGTCCGTTATCAACTTGACAAAGTGGCACCGAGTCGGTGCT
modifications: listed as DNA, chemistry not fully specified
B15 displayed a Mean relative activity of 0.629.

B16: cr227 (nucleic acid)
guide: GTTTAAGAGCTAAGCTGGAAACAGCATAGCAAGTTTAAATAAGGCTAGTCCGCTAACCACTTGAAAAAGTGGCACCGAGTCGGTGCT
modifications: listed as DNA, chemistry not fully specified
Consider B16, for which the Mean relative activity came out at 0.6062.

B17: cr008 (nucleic acid)
guide: GTCTAAGAGCTAAGCTGGAAACAGCATAGCAAGTTTAAATAAGGCTAGTCCGTTATCAACTTGAAAAAGTGGCACCGAGTCGGTGCT
modifications: listed as DNA, chemistry not fully specified
Regarding B17, the Mean relative activity is listed as 0.5955.

B18: cr406 (nucleic acid)
guide: GTTTAAGAGCTAAGCTGGAAACAGCATAGCAAGTTTAAATAAGGCTAGTCCGTTATTAACTTGAAAAAGTGGCACCGAGTCGGTGCT
modifications: listed as DNA, chemistry not fully specified
Consider B18, for which the Mean relative activity stood at 0.6285.

B19: cr650 (nucleic acid)
guide: GTTTAAGAGCTAAGCTGGAAACAGCATAGCAAGTTTAAATAAGGCTAGTCCGTTATGAACTTGAAAAAGTGGCACCGAGTCGGTGCT
modifications: listed as DNA, chemistry not fully specified
In the case of B19, the Mean relative activity is reported as 0.6158.

B20: cr451 (nucleic acid)
guide: GTTTAAGAGCTAAGCTGGAAACAGCATAGCAAGTTTAAATAAGGATATTCCGTTATCAACTTGAAAAAGTGGCTCCGAGTCGGAGCT
modifications: listed as DNA, chemistry not fully specified
B20 gave a Mean relative activity of 0.6053.

B21: cr549 (nucleic acid)
guide: GTTTAAGAGCTAAGCTGGAAACAGCATAGCAAGTTTAAATAAGGCTAGTCCGTTATCAACCTGAAAAGGTGGCACCGAGTCGGTGCT
modifications: listed as DNA, chemistry not fully specified
Turning to B21, the Mean relative activity is listed as 1.051.

B22: cr001 (nucleic acid)
guide: ATTTAAGAGCTAAGCTGGAAACAGCATAGCAAGTTTAAATAAGGCTAGTCCGTTATCAACTTGAAAAAGTGGCACCGAGTCGGTGCT
modifications: listed as DNA, chemistry not fully specified
B22 registered a Mean relative activity of 0.6312.

B23: cr915 (nucleic acid)
guide: GTTTAAGAGCTAAGCTGGAAACAGCATAGCAAGTTTAAATAAGGCTAGTCCGTTATCAACTTGAAAAAGTGGCACCCAGTGGGTGCT
modifications: listed as DNA, chemistry not fully specified
For B23, the Mean relative activity is given as 0.5965.

B24: cr766 (nucleic acid)
guide: GTTTAAGAGCTAAGCTGGAAACAGCATAGCAAGTTTAAATAAGGCTAGTCCGTTATCAACATGAAAATGTGGCACCGAGTCGGTGCT
modifications: listed as DNA, chemistry not fully specified
On to B24, for which the Mean relative activity was found to be 1.051.

B25: cr458 (nucleic acid)
guide: GTTTAAGAGCTAAGCTGGAAACAGCATAGCAAGTTTAAATAAGGCTAGTCCGTTATCAACTTGAGAAAGTCGCACCGAGTCGGTGCT
modifications: listed as DNA, chemistry not fully specified
Consider B25, for which the Mean relative activity came out at 0.5958.

B26: cr212 (nucleic acid)
guide: GTTTAAGAGCTAAGCTGGAAACAGCATAGCAAATTTAAATAAGGCTAGTCCGTTATCAACTTGAAGAAGTGGCACCGAGTCGGTGCT
modifications: listed as DNA, chemistry not fully specified
With B26, the Mean relative activity is 0.6035.

B27: cr639 (nucleic acid)
guide: GTTTAAGAGCTAAGCTGGAAACAGCATAGCAAGTTTAAATAAGGATATTCCGTTATCAACTTGAAAAAGTGGCACCGAGTCGGTGCT
modifications: listed as DNA, chemistry not fully specified
Molecule B27 returned a Mean relative activity of 0.6057.

B28: cr937 (nucleic acid)
guide: GTTTAAGAGCTAAGCTGGAAACAGCATAGCAAGTTTAAATAAGGGTACTCCGTTATCAACTCGAAAGAGTGGCACAGAGTCTGTGCT
modifications: listed as DNA, chemistry not fully specified
Take B28: the Mean relative activity worked out at 0.6137.

B29: cr479 (nucleic acid)
guide: GTTTAAGAGCTAAGCTGGAAACAGCATAGCAAGTTTAAATAAGGCTAGTCCGTTATCAAGTTGAAAAACTGGGACCCAGTGGGTCCT
modifications: listed as DNA, chemistry not fully specified
Take B29: the Mean relative activity was 0.5994.

These data come from patent US20220259593A1, “CONTROL OF MAMMALIAN GENE DOSAGE USING CRISPR” (The Regents of the University of California, priority 2019, published 2022).
